In patent US20190016796A1 (UNIVERSITAT ZURICH, published 2019):

Key:
[1] = biological target: T1, murine interleukin-2 (mouse, UniProt P04351 21-169); assay: SPR, NARA1 amine-coupled to a GLM chip, mouse IL-2 injected at 10 to 0.041 nM
T1 construct: also called mouse IL-2; mIL-2
T1 sequence (looked up): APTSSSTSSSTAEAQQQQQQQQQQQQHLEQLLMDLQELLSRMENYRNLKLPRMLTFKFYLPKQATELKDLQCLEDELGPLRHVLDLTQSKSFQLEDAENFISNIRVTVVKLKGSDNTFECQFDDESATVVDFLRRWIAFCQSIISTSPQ

[2] = biological target: T2, human interleukin-2 (human, UniProt P60568 21-153); assay: SPR, antibody amine-coupled to GLM chip, hIL-2 as analyte (100 nM, three-fold dilutions)
T2 construct: Teceleukin is named only for the in vivo treatments; also called hIL-2; human IL-2
Method: For this experiment an amine coupling GLM chip was used. The activation of the carboxylic acid groups in the chip was done using a mix of 1-ethyl-3-3-dimethylaminopropyl carbodiimide hydrochloride (EDC at 0.2 M) and sulfo N-hydroxysulfosuccinimides (s_NHS at 0.05M) at 30 μl/min for 420 seconds (s). […] Deactivation was followed adding ethanolamine HCl at 30 μl/min for 300 s. Finally human IL-2 was added at different concentrations (starting from 100 nM and followed by three-fold dilutions) at 100 μl/min, 600 s association, and 240 s dissociation.
In order to characterize the binding properties of the anti-human IL-2 mAbs the binding to human interleukin-2 was tested with surface plasmon resonance binding assays.

T2 sequence (P60568 21-153 limits assumed): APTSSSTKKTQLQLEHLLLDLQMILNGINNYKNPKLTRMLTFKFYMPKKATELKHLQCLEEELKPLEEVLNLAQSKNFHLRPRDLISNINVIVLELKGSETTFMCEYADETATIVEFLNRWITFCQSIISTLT

B1: monoclonal antibody NARA1 (antibody, mouse IgG2a, kappa, V domains shown)
VH: QVQLQQSGAELVRPGTSVKVSCKASGYAFTNYLIEWVKQRPGQGLEWIGVINPGSGGTNYNEKFKGKATLTADKSSSTAYMQLSSLTSDDSAVYFCARWRGDGYYAYFDVWGAGTTVTVSS
VL: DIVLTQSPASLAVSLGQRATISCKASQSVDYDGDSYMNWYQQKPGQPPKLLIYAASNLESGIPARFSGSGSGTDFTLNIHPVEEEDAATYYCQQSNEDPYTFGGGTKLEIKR
notes: also called hIL-2 mAb
binding result [1]: no binding (tested: 10 nM) | Kd [2]: 1.2 nM | koff [2]: 2.08e-05 s⁻¹
